In the assay the target is LD-CLIMP-63-FLAG (soluble CLIMP-63 luminal domain, C-terminal His6-FLAG tag) (human). The experiment in a line: native MS; intact protein mass LC-MS under native-like conditions; MAbPac SEC-1 column, 50 mM ammonium acetate pH 7.5, QExactive HF Orbitrap, high-mass-range mode.

“LD-CLIMP-63-FLAG (soluble CLIMP-63 luminal domain, C-terminal His6-FLAG tag) (domain or fragment)” had a stoichiometry N of 3.

One may read the stoichiometry N as a count of units in the complex or per binding partner.

Values taken from paper PMC9844198.
